The assay deals with T1, placental cadherin (P-cadherin; CDH3) (human, UniProt P22223 108-829).
T1 construct: Native CDH3 on the surface of the cancer cell lines H358 and KLM-1; also called native CDH3 protein; CDH3 antigen
The experiment in a line: hybridoma screening on cancer cells carrying native CDH3. The source says: CDH3 gene encoded extracellular domain (SEQ ID NO: 3) was amplified from cDNA pool derived from cancer cells. The product was cloned into the pcDNA3.1 (Invitrogen, CA). To produce CDH3-specific antibody, mice were immunized subcutaneously with the domain expression vector (17.5 mcg/injection) every two weeks for a month. After the confirmation of the titer of antisera, spleenocytes were extracted from the mice and fused to myeloma cells to prepare hybridomas. We screened the hybridomas which can recognize native CDH3 antigen on the surface of the cancer cells. […] The hybridoma clone #6 was used to inject intraperitoneally into mice. The ascites was recovered after 2 to 3 weeks. Finally antibody was purified from the ascites using Protein A column (GE Healthcare, NJ).

T1 sequence (P22223 108-829 limits assumed): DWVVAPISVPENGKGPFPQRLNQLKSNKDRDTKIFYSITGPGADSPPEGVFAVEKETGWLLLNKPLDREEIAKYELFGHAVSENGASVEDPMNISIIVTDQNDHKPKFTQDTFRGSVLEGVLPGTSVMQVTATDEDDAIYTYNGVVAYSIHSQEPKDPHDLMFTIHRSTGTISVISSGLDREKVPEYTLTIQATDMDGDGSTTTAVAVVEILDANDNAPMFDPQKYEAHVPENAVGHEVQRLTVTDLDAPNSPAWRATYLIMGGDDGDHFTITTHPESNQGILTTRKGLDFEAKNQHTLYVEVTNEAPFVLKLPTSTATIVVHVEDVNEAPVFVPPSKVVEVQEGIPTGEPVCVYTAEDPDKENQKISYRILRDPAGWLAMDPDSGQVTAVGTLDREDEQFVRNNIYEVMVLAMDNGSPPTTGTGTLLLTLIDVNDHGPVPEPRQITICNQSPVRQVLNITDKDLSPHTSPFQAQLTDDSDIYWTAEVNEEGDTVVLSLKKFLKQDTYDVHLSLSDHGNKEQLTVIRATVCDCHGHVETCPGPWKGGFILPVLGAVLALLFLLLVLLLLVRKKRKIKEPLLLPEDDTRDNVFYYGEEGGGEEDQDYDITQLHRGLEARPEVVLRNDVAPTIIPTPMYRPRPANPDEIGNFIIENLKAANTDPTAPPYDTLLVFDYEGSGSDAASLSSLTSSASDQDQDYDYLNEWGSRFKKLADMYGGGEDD

B1: Anti-CDH3 mouse monoclonal antibody produced by hybridoma clone #6 (antibody, V domains shown)
VH: QVQLQQPGAELVKPGTSVKLSCKSSGYTFTSYWIHWVKQRPGHGLEWIGEIDPSDNYTYYNQNFKGKATLTIDKSSSTAYMQLNSLTSEDSAVFYCARSGYGNLFVYWGQGTLVTVSA
VL: QIVLTQSPAIMSSSPGEKVTMSCSATSSVTYMYWYQQKPGSSPKPWIFRTSNLASGVPTRFSGSGSGTSYSLTISSMEAEDAATYYCQHYHIYPRTFGGGTKL
notes: The VL as printed ends at 'TKL'
B1: the binding result was “binds”.

Source of the values: patent US20120128584A1 (ONCOTHERAPY SCIENCE, published 2012).
